Reference: patent US20030165506A1 (VLAAMS INTERUNIVERSITAIR INSTITUUT VOOR BIOTECHNOLOGIE VZW, published 2003)

B1: amino terminal part of β-catenin, prey fusion of plasmid pGAD424-ATβctn (other, UniProt P35222 14-172, looked up)
chain: MEPDRKAAVSHWQQQSYLDSGIHSGATTTAPSLSGKGNPEEEDVDTSQVLYEWEQGFSQSFTQEQVADIDGQYAMTRAQRVRAAMFPETLDEGMQIPSTQFDAAHPTNVQRLAEPSQMLKHAVVNLINYQDDAELATRAIPELTKLLNDEDQVVVNKAA
notes: domain: amino terminal fragment 239-717; also called amino terminal fragment 239-717 of β-catenin; not shown: fusion partner encoded by the prey vector pGAD424 (Clontech)
B4: human αT-catenin fused to the GAL4 binding domain, bait plasmid pGBKT7-ATCTN(179-3024) (other, not shown: large carriers)
chain: SAETPITLNIDPQDLQVQTFTVEKLLEPLIIQVTTLVNCPQNPSSRKKGRSKRASVLLASVEEATWNLLDKGEKIAQEATVLKDELTASLEEVRKESEALKVSAERFTDDPCFLPKREAVVQAARALLAAVTRLLILADMIDVMCLLQHVSAFQRTFETLKNVANKSDLQKTYQKLGKELENLDYLAFKRQQDLKSPNQRDEIAGARASLKENSPLLHSICSACLEHSDVASLKASKDTVCEEIQNALNVISNASQGIQNMTTPPEPQAATLGSALDELENLIVLNPLTVTEEEIRPSLEKRLEAIISGAALLADSSCTRDLHRERIIAECNAIRQALQDLLSEYMNNAGKKERSNTLNIALDNMCKKTRDLRRQLRKAIIDHVSDSFLDTTVPLLVLIEAAKNGREKEIKEYAAIFHEHTSRLVEVANLACSMSTNEDGIKIVKIAANHLETLCPQIINAALALAARPKSQAVKNTMEMYKRTWENHIHVLTEAVDDITSIDDFLAVSESHILEDVNKCIIALRDQDADNLDRAAGAIRGRAARVAHIVTGEMDSYEPGAYTEGVMRNVNFLTSTVIPEFVTQVNVALEALSKSSLNVLDDNQFVDISKKIYDTIHDIRCSVMMIRTPEELEDVSDLEEEHEVRSHTSIQTEGKTDRAKMTQLPEAEKEKIAEQVADFKKVKSKLDAEIEIWDDTSNDIIVLAKNMCMIMMEMTDFTRGKGPLKHTTDVIYAAKMISESGSRMDVLARQIANQCPDPSCKQDLLAYLEQIKFYSHQLKICSQVKAEIQNLGGELIMSALDSVTSLIQAAKNLMNAVVQTVKMSYIASTKIIRIQSPAGPRHPVVMWRMKAPAKKPLIKREKPEETCAAVRRGSAKKKIHPLQVMSEFRGRQIY

Tests used:
[1] = biological target: T1, human αT-catenin fused to the GAL4 binding domain, bait plasmid pGBT9-ATCTN(179-2860) (human, UniProt P04386 1-147 (Saccharomyces cerevisiae entry)); test: yeast two-hybrid, X-GAL staining of cotransformants
T1 construct: also called αT-catenin bait fusion; hαT-catenin
Method: (§1) (A) Introduction in the two-hybrid system by cotransformation of the respective fusion constructs. […] (B) Quantification of interaction strength between β-catenin and either αE- or αT-catenin in the yeast two-hybrid system. β-Galactosidase activity was measured using CPRG as a substrate.

[2] = biological target: T2, human αE-catenin fused to the GAL4 DNA binding domain, bait plasmid pGBT9-αECTN (human, UniProt P04386 1-147; P35221 2-906); test: as above
T2 construct: no residue limits are printed; also called αE-catenin bait fusion
Method: as §1

[3] = biological target: B4; test: yeast two-hybrid, Y190 strain, CPRG quantification (FIG. 7B)
Method: (§2) The yeast strain Y190 (Matchmaker, Clontech, CA), which contains GAL4 promoter driven His and β-galactosidase reporters, was used for cotransformation of pGBT9 bait and pGAD424 prey plasmids, comprising the cloned inserts of interest.
To assay the strength of interaction between α-catenins and β-catenin, β-galactosidase activity was assayed using chlorophenol red-β-D-galactopyranoside (CPRG, Boehringer Mannheim, Del.) as a substrate, according to the provided protocol (Clontech Yeast Protocols Handbook).

[4] = biological target: T3, human α-catulin fused to the GAL4 DNA binding domain, bait plasmid pGBT9-αctl(50-2264) (human, UniProt P04386 1-147; Q9UBT7 1-734); test: yeast two-hybrid, cotransformation of bait and prey, X-GAL staining (FIG. 7A)
T3 construct: Limits are printed only as cDNA positions (50-2264); also called α-catulin bait fusion
From the text: as §2

[5] = biological target: T1, human αT-catenin fused to the GAL4 …; test: yeast two-hybrid, X-GAL staining of cotransformants (FIG. 7A)
From the text: as §2

[6] = biological target: T4, β-catenin prey fusion of plasmid pGAD424-βctn (UniProt P35222 14-172); test: cell-based or functional assay
T4 sequence (looked up): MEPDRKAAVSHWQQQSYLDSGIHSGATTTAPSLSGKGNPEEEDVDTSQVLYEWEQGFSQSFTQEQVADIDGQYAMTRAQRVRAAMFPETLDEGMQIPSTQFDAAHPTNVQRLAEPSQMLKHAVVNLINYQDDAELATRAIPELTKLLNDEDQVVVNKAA

[7] = biological target: B1; test: cell-based or functional assay

## B1
[1]
  binding result: binds
[2]
  binding result: binds
[3]
  binding result: binds
[4]
  binding result: no binding

B2: nearly full-length human plakoglobin, prey fusion of plasmid pGAD424-Plakoglobin(227-2340) (other, UniProt P14923 37-740, looked up)
chain: VSSKGIMEEDEACGRQYTLKKTTTYTQGVPPSQGDLEYQMSTTARAKRVREAMCPGVSGEDSSLLLATQVEGQATNLQRLAEPSQLLKSAIVHLINYQDDAELATRALPELTKLLNDEDPVVVTKAAMIVNQLSKKEASRRALMGSPQLVAAVVRTMQNTSDLDTARCTTSILHNLSHHREGLLAIFKSGGIPALVRMLSSPVESVLFYAITTLHNLLLYQEGAKMAVRLADGLQKMVPLLNKNNPKFLAITTDCLQLLAYGNQESKLIILANGGPQALVQIMRNYSYEKLLWTTSRVLKVLSVCPSNKPAIVEAGGMQALGKHLTSNSPRLVQNCLWTLRNLSDVATKQEGLESVLKILVNQLSVDDVNVLTCATGTLSNLTCNNSKNKTLVTQNSGVEALIHAILRAGDKDDITEPAVCALRHLTSRHPEAEMAQNSVRLNYGIPAIVKLLNQPNQWPLVKATIGLIRNLALCPANHAPLQEAAVIPRLVQLLVKAHQDAQRHVAAGTQQPYTDGVRMEEIVEGCTGALHILARDPMNRMEIFRLNTIPLFVQLLYSSVENIQRVAAGVLCELAQDKEAADAIDAEGASAPLMELLHSRNEGTATYAAAVLFRISEDKNPDYRKRVSVELTNSLFKHDPAAWEAAQSMIPINEPYGDDMDATYRPMYSSDVPLDPLEMHMDMDGDYPIDTYSDGLRPPYPTA
notes: domain: nearly full-length plakoglobin; not shown: fusion partner encoded by the prey vector pGAD424 (Clontech)
[5]
  binding result: binds

B3: human αT-catenin fused to the LexA binding domain, bait plasmid pLexMG-ATCTN(179-2860) (other)
chain: MKALTARQQEVFDLIRDHISQTGMPPTRAEIAQRLGFRSPNAAEEHLKALARKGVIEIVSGASRGIRLLQEEEEGLPLVGRVAAGEPLLAQQHIEGHYQVDPSLFKPNADFLLRVSGMSMKDIGIMDGDLLAVHKTQDVRNGQVVVARIDDEVTVKRLKKQGNKVELLPENSEFKPIVVDLRQQSFTIEGLAVGVIRNGDWLSAETPITLNIDPQDLQVQTFTVEKLLEPLIIQVTTLVNCPQNPSSRKKGRSKRASVLLASVEEATWNLLDKGEKIAQEATVLKDELTASLEEVRKESEALKVSAERFTDDPCFLPKREAVVQAARALLAAVTRLLILADMIDVMCLLQHVSAFQRTFETLKNVANKSDLQKTYQKLGKELENLDYLAFKRQQDLKSPNQRDEIAGARASLKENSPLLHSICSACLEHSDVASLKASKDTVCEEIQNALNVISNASQGIQNMTTPPEPQAATLGSALDELENLIVLNPLTVTEEEIRPSLEKRLEAIISGAALLADSSCTRDLHRERIIAECNAIRQALQDLLSEYMNNAGKKERSNTLNIALDNMCKKTRDLRRQLRKAIIDHVSDSFLDTTVPLLVLIEAAKNGREKEIKEYAAIFHEHTSRLVEVANLACSMSTNEDGIKIVKIAANHLETLCPQIINAALALAARPKSQAVKNTMEMYKRTWENHIHVLTEAVDDITSIDDFLAVSESHILEDVNKCIIALRDQDADNLDRAAGAIRGRAARVAHIVTGEMDSYEPGAYTEGVMRNVNFLTSTVIPEFVTQVNVALEALSKSSLNVLDDNQFVDISKKIYDTIHDIRCSVMMIRTPEELEDVSDLEEEHEVRSHTSIQTEGKTDRAKMTQLPEAEKEKIAEQVADFKKVKSKLDAEIEIWDDTSNDIIVLAKNMCMIMMEMTDFTRGKGPLKHTTDVIYAAKMISESGSRMDVLARQIANQCPDPSCKQDLLAYLEQIKFYSHQLKICSQVKAEIQNLGGELIMSALDSVTSLIQAAKNLMNAVVQTVKMSYIASTKIIRIQSPAGPRHPVVMWRMKAPAKKPLIKREKPEETCAAVRRGSAKKKIHPLQVMSEFRGRQIY
[6]
  β-Galactosidase activity measured using CPRG as a substrate, yeast two-hybrid, L40 yeast strain: ~4 fold against αE-catenin/β-catenin (pLexMG-αEctn plus pGAD424-βctn)

## B4
[7]
  β-Galactosidase activity measured using CPRG as a substrate, yeast two-hybrid, Y190 yeast strain: ~4 fold against αE-catenin/β-catenin (pGBT9-αEctn plus pGAD424-ATβctn)
